Source: IntAct's records for PubMed 22405203

B1: Hypoxia-inducible factor prolyl hydroxylase (Caenorhabditis elegans), G5EBV0 (parent)
chain: MSSAPNDDCEIDKGTPSTASLFTTLMLSQPSSSTAVLQCTYCGSSCTSSQLQTCLFCGTVAYCSKEHQQLDWLTHKMICKSLQTSGMVPSNLMPQAAPAVMAPIPPTVSFDDPALTTSLLLSLQNNPILNQTISNFPPTFSITSKTEPEPSIPIQIPQRISSTSTVPFSSEGSAFKPYRNTHVFNSISSESMSSMCTSHEASLEHMSSASLAMFPTSSTAQSDISRLAQVLSLAGDSPASLALVTTSVPSTASTATIPPPATTTSSATSSGKSETITVGKEKIIQTDDPDIQIIETEGGSKPTVSRTRKRPTPSNSADPKINYKDHNKNVVYSTTLQEHQKHLQNRGLALSIHQAMVLRLRYIAEHVIRSLNEFGWAVVDNFLGSDHYKFTAKEIERLYERGLFSPGQLMEAKHKDEFHIKDIRSDHIYWYDGYDGRAKDAATVRLLISMIDSVIQHFKKRIDHDIGGRSRAMLAIYPGNGTRYVKHVDNPVKDGRCITTIYYCNENWDMATDGGTLRLYPETSMTPMDIDPRADRLVFFWSDRRNPHEVMPVFRHRFAITIWYMDKSERDKALAKGKESDAACASKKENDPTSSSLNSLIGSLLRPRKNPSTHDLSKLDLRLFPSTSSDPALVSAADEDRVDISADFQSTSSLAHPESTDSGVSLSTFNVAHNHMERTTSLQSISDHFRSERSHERRSSTSSDQDLDEGLPPPPSTNPEYYI
partner: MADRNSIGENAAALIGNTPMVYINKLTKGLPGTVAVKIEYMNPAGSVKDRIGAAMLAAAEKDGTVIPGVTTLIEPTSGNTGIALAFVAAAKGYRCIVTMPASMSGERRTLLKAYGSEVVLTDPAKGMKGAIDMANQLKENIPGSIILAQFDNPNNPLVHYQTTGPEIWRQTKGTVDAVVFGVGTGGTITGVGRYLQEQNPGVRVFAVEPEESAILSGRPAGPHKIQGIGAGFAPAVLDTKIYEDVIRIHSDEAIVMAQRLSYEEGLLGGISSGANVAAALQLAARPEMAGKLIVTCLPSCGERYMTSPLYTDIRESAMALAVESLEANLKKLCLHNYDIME

Variants of: B1
Conditions: with cysk1_caeel cysl-1, Q93244

Variant | effect of a mutation on the interaction
I723A | decreasing interaction strength
E720K | decreasing interaction strength

Variants of: B1
Conditions: with cysk1_caeel cysl-1, Q93244
Remark: another data set of the same source

Variant | effect of a mutation on the interaction
E720K | disrupting interaction strength
